According to US20250011379:

Legend:
soluble human C3b = soluble human C3b (UniProt P01024)
human C4b = human C4b (UniProt P0C0L5)
Sequence of human C4b (P0C0L5 whole entry, looked up): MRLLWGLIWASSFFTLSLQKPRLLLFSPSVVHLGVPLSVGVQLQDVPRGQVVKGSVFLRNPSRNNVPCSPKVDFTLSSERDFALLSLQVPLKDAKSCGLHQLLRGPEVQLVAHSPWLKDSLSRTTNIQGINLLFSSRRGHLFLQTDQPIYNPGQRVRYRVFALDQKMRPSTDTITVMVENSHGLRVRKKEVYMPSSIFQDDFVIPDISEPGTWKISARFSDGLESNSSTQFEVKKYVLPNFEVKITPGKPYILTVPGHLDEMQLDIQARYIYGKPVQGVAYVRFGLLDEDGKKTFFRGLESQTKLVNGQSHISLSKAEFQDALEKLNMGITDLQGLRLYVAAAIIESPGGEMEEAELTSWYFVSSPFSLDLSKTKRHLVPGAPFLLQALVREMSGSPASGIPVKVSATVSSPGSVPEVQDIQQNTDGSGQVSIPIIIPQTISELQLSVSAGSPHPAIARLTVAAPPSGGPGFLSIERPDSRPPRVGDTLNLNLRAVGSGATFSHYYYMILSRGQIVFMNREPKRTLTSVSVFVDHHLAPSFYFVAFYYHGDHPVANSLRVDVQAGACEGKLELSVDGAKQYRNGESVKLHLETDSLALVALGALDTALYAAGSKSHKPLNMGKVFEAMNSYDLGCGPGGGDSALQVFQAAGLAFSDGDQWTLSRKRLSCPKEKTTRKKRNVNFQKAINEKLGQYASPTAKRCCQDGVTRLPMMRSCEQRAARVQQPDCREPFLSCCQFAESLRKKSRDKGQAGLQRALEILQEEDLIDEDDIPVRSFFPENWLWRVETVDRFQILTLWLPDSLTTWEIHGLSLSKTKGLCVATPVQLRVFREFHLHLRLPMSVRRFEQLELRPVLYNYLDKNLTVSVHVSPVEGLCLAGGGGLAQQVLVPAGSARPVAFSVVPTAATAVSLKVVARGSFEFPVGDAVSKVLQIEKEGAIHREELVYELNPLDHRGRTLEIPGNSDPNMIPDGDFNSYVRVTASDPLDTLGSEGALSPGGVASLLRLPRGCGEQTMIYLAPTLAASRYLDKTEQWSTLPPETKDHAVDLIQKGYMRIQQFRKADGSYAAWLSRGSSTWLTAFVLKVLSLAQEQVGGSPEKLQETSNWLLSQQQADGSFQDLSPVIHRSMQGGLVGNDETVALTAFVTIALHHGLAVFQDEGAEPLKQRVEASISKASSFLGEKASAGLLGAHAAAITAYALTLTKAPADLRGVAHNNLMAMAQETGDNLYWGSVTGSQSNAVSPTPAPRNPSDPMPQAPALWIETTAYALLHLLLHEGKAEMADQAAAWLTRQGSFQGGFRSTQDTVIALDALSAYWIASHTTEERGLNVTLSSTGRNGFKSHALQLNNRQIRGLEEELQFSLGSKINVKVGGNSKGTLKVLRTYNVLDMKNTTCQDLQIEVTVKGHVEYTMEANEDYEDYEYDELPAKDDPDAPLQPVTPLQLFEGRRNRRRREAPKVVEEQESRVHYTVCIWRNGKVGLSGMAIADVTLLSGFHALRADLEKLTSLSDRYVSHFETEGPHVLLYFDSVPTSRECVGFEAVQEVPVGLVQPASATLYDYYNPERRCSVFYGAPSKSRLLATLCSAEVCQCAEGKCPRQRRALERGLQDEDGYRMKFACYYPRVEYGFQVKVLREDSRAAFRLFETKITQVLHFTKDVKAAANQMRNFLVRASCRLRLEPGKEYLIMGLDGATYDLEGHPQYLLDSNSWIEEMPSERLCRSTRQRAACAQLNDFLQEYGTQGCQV

Sequence of soluble human C3b (P01024 whole entry, looked up, tested part not stated): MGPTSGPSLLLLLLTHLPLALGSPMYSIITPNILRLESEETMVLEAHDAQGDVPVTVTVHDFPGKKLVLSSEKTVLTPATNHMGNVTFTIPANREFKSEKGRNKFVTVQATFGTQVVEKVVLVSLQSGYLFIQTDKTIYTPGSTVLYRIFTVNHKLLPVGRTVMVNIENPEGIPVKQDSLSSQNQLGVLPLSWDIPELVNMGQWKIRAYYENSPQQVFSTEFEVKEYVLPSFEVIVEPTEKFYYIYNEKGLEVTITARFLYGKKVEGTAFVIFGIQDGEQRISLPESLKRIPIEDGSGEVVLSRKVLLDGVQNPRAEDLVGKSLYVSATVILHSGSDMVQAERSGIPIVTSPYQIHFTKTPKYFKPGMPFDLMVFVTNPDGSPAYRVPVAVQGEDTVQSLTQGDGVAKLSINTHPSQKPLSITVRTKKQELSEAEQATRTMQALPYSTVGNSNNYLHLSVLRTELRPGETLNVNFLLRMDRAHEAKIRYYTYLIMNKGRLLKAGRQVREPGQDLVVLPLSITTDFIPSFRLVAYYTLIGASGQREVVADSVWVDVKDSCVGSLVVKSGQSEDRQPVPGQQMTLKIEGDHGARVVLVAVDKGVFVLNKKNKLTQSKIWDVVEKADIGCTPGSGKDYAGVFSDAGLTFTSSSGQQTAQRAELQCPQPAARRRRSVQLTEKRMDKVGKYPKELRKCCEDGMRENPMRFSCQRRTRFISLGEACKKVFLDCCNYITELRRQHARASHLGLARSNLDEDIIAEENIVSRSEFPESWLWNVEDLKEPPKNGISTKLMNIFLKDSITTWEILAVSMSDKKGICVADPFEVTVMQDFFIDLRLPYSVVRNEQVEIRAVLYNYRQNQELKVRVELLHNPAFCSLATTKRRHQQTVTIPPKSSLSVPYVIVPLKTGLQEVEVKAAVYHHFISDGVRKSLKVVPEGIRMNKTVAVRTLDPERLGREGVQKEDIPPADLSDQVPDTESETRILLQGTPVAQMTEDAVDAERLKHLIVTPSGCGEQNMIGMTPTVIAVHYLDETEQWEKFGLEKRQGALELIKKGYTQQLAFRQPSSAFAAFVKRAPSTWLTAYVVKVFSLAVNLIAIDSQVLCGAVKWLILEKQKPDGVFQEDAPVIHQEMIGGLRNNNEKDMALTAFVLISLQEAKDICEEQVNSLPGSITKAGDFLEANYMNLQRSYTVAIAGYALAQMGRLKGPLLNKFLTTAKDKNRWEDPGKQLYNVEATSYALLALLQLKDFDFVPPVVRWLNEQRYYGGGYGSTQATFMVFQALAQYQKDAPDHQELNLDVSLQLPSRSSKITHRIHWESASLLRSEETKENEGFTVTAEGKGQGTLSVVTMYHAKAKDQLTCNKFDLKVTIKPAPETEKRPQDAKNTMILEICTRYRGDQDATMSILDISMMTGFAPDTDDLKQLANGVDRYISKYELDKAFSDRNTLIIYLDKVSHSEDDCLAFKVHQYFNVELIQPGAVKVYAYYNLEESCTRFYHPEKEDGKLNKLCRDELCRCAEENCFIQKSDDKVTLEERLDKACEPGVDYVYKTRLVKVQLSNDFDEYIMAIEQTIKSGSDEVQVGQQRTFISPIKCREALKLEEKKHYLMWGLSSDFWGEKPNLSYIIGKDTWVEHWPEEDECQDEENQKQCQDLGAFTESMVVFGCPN
Sequence of Const. No. 10: HSA-GGSSGG-hCFI; Δ(Y496) (chain): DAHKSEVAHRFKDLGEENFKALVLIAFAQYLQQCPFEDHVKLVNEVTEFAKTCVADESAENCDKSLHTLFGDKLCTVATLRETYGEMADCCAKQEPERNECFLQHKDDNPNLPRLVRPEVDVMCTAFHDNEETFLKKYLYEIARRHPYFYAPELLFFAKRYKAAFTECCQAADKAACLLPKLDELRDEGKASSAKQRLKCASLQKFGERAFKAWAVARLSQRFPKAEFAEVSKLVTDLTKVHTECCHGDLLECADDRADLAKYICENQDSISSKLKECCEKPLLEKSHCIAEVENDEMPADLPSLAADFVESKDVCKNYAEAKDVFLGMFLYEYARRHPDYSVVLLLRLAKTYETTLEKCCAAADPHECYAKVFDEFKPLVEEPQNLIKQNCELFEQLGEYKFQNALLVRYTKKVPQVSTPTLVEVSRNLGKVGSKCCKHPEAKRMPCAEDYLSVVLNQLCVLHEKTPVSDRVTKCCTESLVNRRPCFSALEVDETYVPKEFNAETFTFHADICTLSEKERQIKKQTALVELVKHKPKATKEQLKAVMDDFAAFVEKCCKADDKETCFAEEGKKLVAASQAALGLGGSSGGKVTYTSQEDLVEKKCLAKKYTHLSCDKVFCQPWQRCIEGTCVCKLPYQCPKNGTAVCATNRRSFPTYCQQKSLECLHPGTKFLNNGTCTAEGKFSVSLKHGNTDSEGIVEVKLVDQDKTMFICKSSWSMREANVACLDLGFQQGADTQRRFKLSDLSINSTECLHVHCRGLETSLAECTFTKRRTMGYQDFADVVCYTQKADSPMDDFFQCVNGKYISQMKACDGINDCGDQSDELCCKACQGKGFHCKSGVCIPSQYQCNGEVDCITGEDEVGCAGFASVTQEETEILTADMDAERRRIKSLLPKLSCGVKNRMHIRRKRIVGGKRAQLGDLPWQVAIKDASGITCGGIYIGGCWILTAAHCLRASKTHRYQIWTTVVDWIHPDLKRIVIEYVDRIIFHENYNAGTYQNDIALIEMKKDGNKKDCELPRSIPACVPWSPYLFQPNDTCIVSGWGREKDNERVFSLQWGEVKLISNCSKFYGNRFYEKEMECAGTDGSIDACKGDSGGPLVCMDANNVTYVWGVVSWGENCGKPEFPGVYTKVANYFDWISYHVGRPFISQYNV

Substance | iC3b ref fold (soluble human C3b) | C4c ref fold (human C4b)
Const. No. 1: HSA-GGSSGG-hCFI; F559W | 1.39 fold | 1.08 fold
Const. No. 2: HSA-GGSSGG-hCFI; F559H | 1.73 fold | 0.58 fold
Const. No. 3: HSA-GGSSGG-hCFI; L307F | 1.01 fold | 3.48 fold
Const. No. 4: HSA-GGSSGG-hCFI; L307H | 0.89 fold | 3.55 fold
Const. No. 5: HSA-GGSSGG-hCFI; L307W | 0.79 fold | 3.89 fold
Const. No. 6: HSA-GGSSGG-hCFI; L307Y | 0.63 fold | 2.98 fold
Const. No. 7: HSA-GGSSGG-hCFI; P433A | 0.8 fold | 0.81 fold
Const. No. 8: HSA-GGSSGG-hCFI; P433G | 0.14 fold | 0.39 fold
Const. No. 9: HSA-GGSSGG-hCFI; P433F | 0.07 fold | 0.05 fold
Const. No. 10: HSA-GGSSGG-hCFI; Δ(Y496) | 0.03 fold | 0.02 fold
Const. No. 11: HSA-GGSSGG-hCFI; Δ(D497) | -0.01 fold | -0.02 fold
Const. No. 12: HSA-GGSSGG-hCFI; Δ(Y496; D497) | 0.18 fold | 0.9 fold
Const. No. 13: HSA-GGSSGG-hCFI; S499G | 0.34 fold | 0.72 fold
Const. No. 14: HSA-GGSSGG-hCFI; S499A | 1.36 fold | 0.45 fold
Const. No. 15: HSA-GGSSGG-hCFI; S499K | 0.67 fold | 1.98 fold
Const. No. 16: HSA-GGSSGG-hCFI; S499V | 0.18 fold | 1.24 fold
Const. No. 17: HSA-GGSSGG-hCFI; Y496L | 0.44 fold | 1.54 fold
Const. No. 18: HSA-GGSSGG-hCFI; S499G; I500K | 0.16 fold | 0.08 fold
Const. No. 19: HSA-GGSSGG-hCFI; S499A; I500K | 0.02 fold | -0.05 fold
Const. No. 20: HSA-GGSSGG-hCFI; T495F; Y496L; S499G; I500K | 0 fold | 0.05 fold

Substance | iC3b ref fold (soluble human C3b) | C4c ref fold (human C4b)
Const. No. 21: HSA-GGSSGG-hCFI; K423R | 0.55 fold | 1.44 fold
Const. No. 22: HSA-GGSSGG-hCFI; R62A | 0.23 fold | 1.07 fold
Const. No. 23: HSA-GGSSGG-hCFI; R62E | 0.04 fold | 0.1 fold
Const. No. 24: HSA-GGSSGG-hCFI; R62L | 0.19 fold | 0.59 fold
Const. No. 25: HSA-GGSSGG-hCFI; R62H | 0.29 fold | 0.74 fold
Const. No. 26: HSA-GGSSGG-hCFI; E401K | 2.37 fold | 1.92 fold
Const. No. 27: HSA-GGSSGG-hCFI; E401R | 2.12 fold | 2.93 fold
Const. No. 28: HSA-GGSSGG-hCFI; E401A | 1.87 fold | 0.86 fold
Const. No. 29: HSA-GGSSGG-hCFI; E401F | 1.64 fold | 0.5 fold
Const. No. 30: HSA-GGSSGG-hCFI; N402G | 1.44 fold | 0.73 fold
Const. No. 31: HSA-GGSSGG-hCFI; N402K | 1.53 fold | 1.14 fold
Const. No. 32: HSA-GGSSGG-hCFI; N402R | 1.47 fold | 0.98 fold
Const. No. 33: HSA-GGSSGG-hCFI; H554F | 1 fold | 0.55 fold
Const. No. 34: HSA-GGSSGG-hCFI; H554K | 2.11 fold | 2.62 fold
Const. No. 35: HSA-GGSSGG-hCFI; R371E | 0.04 fold | 2.02 fold
Const. No. 36: HSA-GGSSGG-hCFI; A342R | 1.73 fold | 2.08 fold
Const. No. 37: HSA-GGSSGG-hCFI; K51R; N52A; A55P; T59M; R61G; F64Y | 1.12 fold | 3.59 fold
Const. No. 38: HSA-GGSSGG-hCFI; N52A | 0.72 fold | 2.93 fold
Const. No. 39: HSA-GGSSGG-hCFI; A55P | 1.1 fold | 2.83 fold
Const. No. 40: HSA-GGSSGG-hCFI; T59E | 0.68 fold | 2.17 fold
